# According to publication PMC3558936 (Neuron, 2013):
# Molecular target: the molecule itself
# Experiment: FRET or BRET
protein,measurement,value
"Ciona intestinalis Hv1 (Ci-Hv1) D171A/S242C channel (natural protein, UniProt Q1JV40 1-342, looked up, Alexa488-maleimide (donor) or TMR-MTS (acceptor) on the introduced cysteine 242) MEGDNCNKSRHKSHNMINPNYASVRCTQPLPSVIQLRSRNKMIGITEDPSSDSEPVSSNQPLLLTNLSYEVHTFNDNNNHERPAPQEQSTQNTMISMQSEQKSDRFTASNLGMFQYMKFEIGEDGDDHEEEAILTNREKLRHILHSKPIHVAIIVLVVLDSFLVVGELLIALKVIIVPHGNPAPEILHGFSLSILSIFMVEIALKIIADHRHFIHHKVEVLDAVVVVISFGVDIALIFVGECEALAAIGLLVILRLWRVFRIINGIIVTVKTKADDRVHEIKKKNSELELQIHNLEEKLSQKEQDMSRLHEILRCNNIDIPPTVPLTTSVQIHSTTTASADV",stoichiometry N,2
